# Test results as given in patent US20020107366A1 (JURIDICAL FOUNDATION THE CHEMO SERO THERAPEUTIC RESEARCH …, published 2002).
# B1: FLAF p40 (ligand)
# chain: IWELEKNVYVVELDWHPDAPGEMVVLTCNTPEEDDITWTSDQSSEVLGSGKTLTIQVKEFADAGQYTCHKGGEVLSHSFLLIHKKEDGIWSTDILREQKESKNKIFLKCEAKNYSGRFTCWWLTAISTDLKFTVKSSRGSSDPQGVTCGAATLSAEKVRVDNRDYKKYTVECQEGSACPAAEESLPIEVVVDAIHKLKYENYTSSFFIRDIIKPDPPKNLQLKPLKNSRHVEVSWEYPDTWSTPHSYFSLTFGVQVQGKNNREKKDRLSVDKTSAKVVCHKDAKIRVQARDRYYSSSWSNWASVSCS
# notes: also called protein with a molecular weight of about 40,000
# Columns and labels:
# [1] = molecular target: the molecule itself; assay: Western blot of culture supernatant of COS7 cells transfected with CAGfp40; self-association of p40
# Procedure: The day (20 hours) before transfection, COS7 cells were plated on a 6 well plate at 2×10⁵ cells/well. On the next day, Lipofect Ace reagent was mixed with the expression plasmid (1 μg of cAGf40 per well) and the mixture was left to stand at room temperature for 15 minutes and then added to the COS7 cells, followed by addition of serum free medium Opti-MEM (0.8 ml). On the next day, 2 ml of serum free medium (ASF104; Ajinomoto K. K.) was added and culture was continued for additional 2 days and then culture supernatant was recovered. A portion of the supernatant was subjected to Western blot as described in Example 11 to detect expression products which reacted with polyclonal antibodies which recognize FLAF p40. As a result, bands corresponding to FLAF p40 reactive with anti-FLAF p40 antibody (MW about 40,000) and to a homologous dimer thereof (MW about 80,000) were detected (FIG. 11).
# A polyclonal antibody against FLAF p40 was prepared by injecting each 1 ml of the FLAF p40 expression plasmid (CAGfp40) (1 mg/ml; Example 5) intramuscularly into both rear legs of a rabbit four times at every 3 weeks. Western blot was used to determine whether the obtained antibody recognized FLAF p40 (FIG. 16). First, purified FLAF was subjected to SDS-PAGE in the absence of 2-mercaptoethanol and then transferred to PVDF membrane as described in Example 3. […]
# FLAF p40 = molecular target: B1; assay: non-reducing SDS-PAGE and Western blot with anti-p35 and anti-p40 antibodies; subunit association
# Procedure: These bands were analyzed by Western blot as described in Example 2 wherein two membranes were prepared, i.e. one using a monoclonal antibody against the partial synthetic peptide of FLAF p35 produced by the clone F18-4 as described in Example 12 as a primary antibody and another using the antibody against FLAF p40 as described in Example 11. As a result, both p75 and p80 reacted with both antibodies to confirm that they are both heterologous dimer of FLAF p35 and FLAF p40.
Binder,binding result [1],binding result (FLAF p40)
B1,binds,–
"FLAF p35 (ligand, also called protein with a molecular weight of about 35,000) RNLPTPTPSPGMFQCLNHSQTLLRAISNTLQKARQTLEFYSCTSEEIDHEDITKDKTSTVEACLPLELTMNESCLASREISLITNGSCLASRKTSFMTTLCLSSIYEDLKMYQVEFKAMNAKLLMDPKRQIFLDQNMLTAIDELLQALNVNSVTVPQNSSLEEPDFYKTKIKLCILLHAFRIRAVTINRMMSYLNSS",–,binds
